Measured values from PMC8211825, “Molecular mechanism of calcium induced trimerization of C1q-like domain of otolin-1 from human and zebrafish” (Scientific Reports, 2021).
Substitutions are numbered along the chain they refer to. Names may count otherwise.

B1: dOtolC1q D432A (domain or fragment, zebrafish (Danio rerio), UniProt A5PN28 351-488, looked up)
chain: AVQKRSAFSVGLFPSRSFPPPGLPIRFDKIIYNEEAHWDPNASKFNCTHGGVYVFSYYITVRNRPLRAALVVNGIRKLRTRASLYGQDIDQASNMAVLRLSSGDQVWLETLRDWNGVYSSSEDDSTFSGFLLYADATK
notes: gC1q (C1q-like) domain of zebrafish otolin-1, UniProt A5PN28, with D432A; Same construct as m6 with the mutation
B2: dOtolC1q D440A (domain or fragment, zebrafish (Danio rerio), UniProt A5PN28 351-488, looked up)
chain: B1 chain with A82D, D90A
notes: gC1q (C1q-like) domain of zebrafish otolin-1, UniProt A5PN28, with D440A; Same construct as m6 with the mutation
B3: dOtolC1q D432A D440A (domain or fragment, zebrafish (Danio rerio), UniProt A5PN28 351-488, looked up)
chain: B1 chain with D90A
notes: gC1q (C1q-like) domain of zebrafish otolin-1, UniProt A5PN28, with D432A and D440A; Same construct as m6 with the two mutations; also called double mutant
B4: hOtolC1q E417A (domain or fragment, human, UniProt A6NHN0 338-473, looked up)
chain: ARVPRSAFSAGLSKPFPPPNIPIKFEKILYNDQGNYSPVTGKFNCSIPGTYVFSYHITVRGRPARISLVAQNKKQFKSRATLYGQEIDQASLLVILKLSAGDQVWLEVSKDWNGVYVSAEDDSIFTGFLLYPEETS
notes: gC1q (C1q-like) domain of human otolin-1, UniProt A6NHN0, with E417A
B5: hOtolC1q E417A D425A (domain or fragment, human, UniProt A6NHN0 338-473, looked up)
chain: B4 chain with D88A
notes: gC1q (C1q-like) domain of human otolin-1, UniProt A6NHN0, with E417A and D425A; also called double mutant
B6: hOtolC1q D425A (domain or fragment, human, UniProt A6NHN0 338-473, looked up)
chain: B4 chain with A80E, D88A
notes: gC1q (C1q-like) domain of human otolin-1, UniProt A6NHN0, with D425A

Molecular target: the molecule itself
Test: AUC; sedimentation velocity, c(s) analysis in SEDFIT; sevenfold (hOtolC1q forms) or 14-fold (dOtolC1q forms) molar excess of TbCl3; protein 0.20-0.25 mg/mL; self-association of the gC1q domain into trimers

Row | Protein | stoichiometry N
1 | B1 | 3
2 | B2 | 3
3 | B3 | 3
4 | B4 | 3
5 | B5 | 3
6 | B6 | 3
